Experimental findings from paper PMC8530329 (2021) are described below.

For assay [1], the target named is T1, SARS-CoV-2 RBD-Flag-His protein (SARS-CoV-2, UniProt P0DTC2 319-541). Nature of the assay: BLI.
For assay [2], the target named is T1, SARS-CoV-2 RBD-Flag-His protein. Nature of the assay: BLI. This is another data set of the same source.

B1: RBD-chAb-45 (antibody, V domains shown)
VH: EVQLQQSGPELVKPGASVKISCKTSGYTFTEYTIYWVKQSLGKSLEWIGGNNPNNDDTTYKQFFKGKATLTVDKSSSTAYMELRSLTSEDSAVYYCARDGYPYYYALDFWGQGTSVTVSS
VL: DIVMTQSQKFMSTSVGDRVSVTCKSSQNVGTNVAWYQQKPGQSPKALIYSASYRYSGVPDHFTGSGSGTDFTLTISNVQSADLAEYFCQQYNNYPWTFGGGTKLEIK
B1 gave a koff in assay [1] of 0.000282 s⁻¹. This molecule returned a dissociation constant Kd in assay [2] of 0.282 nM.
